For six molecules, Kd results are on record in paper PMC8319299, “PALI1 facilitates DNA and nucleosome binding by PRC2 and triggers an allosteric activation of catalysis” (Nature Communications, 2020).

One may read the Kd as the equilibrium constant for the complex coming apart. Lower therefore signals a tighter complex.

In assay [1] the target is T1, EED (amino acids 40-441) (human, UniProt O75530-1 40-441).
T1 construct: pGEX-MHL vector, TEV-cleavable GST tag; source: E. coli BL21 (DE3), purified (Glutathione-agarose, TEV cleavage, heparin, gel filtration); not shown: GST, N-terminal, cleaved
Nature of the assay: fluorescence polarisation; fluorescence anisotropy displacement titration: 2-fold serial dilutions of unlabelled peptide with 10 µM EED and 40 nM 5-FAM labelled JARID2-K116me3 peptide; same buffer, 30 °C; Kd of the unlabelled peptide from a fit. The following applies: both partners purified. (In general: Fluorescence polarisation rises when a labelled molecule tumbles more slowly, as on binding a larger partner.)

In assay [2] the target is T1, EED (amino acids 40-441). Nature of the assay: fluorescence polarisation; fluorescence anisotropy direct titration: various concentrations of EED (40-441) with 40 nM 5-FAM labelled JARID2-K116me3 peptide; 50 mM Tris-HCl pH 7.5, 100 mM KCl, 2 mM 2-mercaptoethanol, 0.1 mg/mL BSA, 0.05% NP-40, 2.5% glycerol; 30 °C, 30 min. The following applies: both partners purified.

Where no end group is shown, it is not given here. [ ]: non-standard residue; d: D form. Lys(Me3) = C[N+](C)(C)CCCC[C@H](N)C(=O)O; Lys(Me2) = CN(C)CCCC[C@H](N)C(=O)O; Lys(Me) = CNCCCC[C@H](N)C(=O)O

T1 sequence (O75530 40-441): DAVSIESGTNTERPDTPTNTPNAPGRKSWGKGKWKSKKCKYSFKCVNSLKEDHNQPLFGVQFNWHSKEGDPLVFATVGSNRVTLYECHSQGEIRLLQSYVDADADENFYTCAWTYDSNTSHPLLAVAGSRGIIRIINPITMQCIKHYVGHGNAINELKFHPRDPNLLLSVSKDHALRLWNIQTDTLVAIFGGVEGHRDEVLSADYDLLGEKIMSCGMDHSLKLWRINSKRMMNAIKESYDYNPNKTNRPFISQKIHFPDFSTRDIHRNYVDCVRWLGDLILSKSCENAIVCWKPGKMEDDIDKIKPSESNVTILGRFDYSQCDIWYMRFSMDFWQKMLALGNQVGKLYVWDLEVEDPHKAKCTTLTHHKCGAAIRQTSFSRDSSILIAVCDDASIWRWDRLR

B1: PALI1-K1241me2 peptide (peptide)
chain: LK[Lys(Me2)]FPG
As to B1, in the assay with EED (amino acids 40-441) [1], the Kd was 19 µM.

B2: PALI1-K1219me3 peptide (peptide)
chain: LQ[Lys(Me3)]YA
In turn, B2 showed a dissociation constant (Kd) in the assay with EED (amino acids 40-441) [1] of 7.59 µM.

B3: PALI1-K1241me3 peptide (peptide)
chain: LK[Lys(Me3)]FPG
Molecule B3 returned a Kd with EED (amino acids 40-441) [1] of 7.49 µM.

B4: H3K27me3 peptide (peptide)
chain: TKAAR[Lys(Me3)]SAPAT
modifications: also: trimethyllysine at K27, position not placed (two Lys in chain)
Turning to B4, binding with EED (amino acids 40-441) [1] was characterised by a dissociation constant (Kd) of 41.7 µM.

B5: 5-carboxyfluorescein (5-FAM) labelled JARID2-K116me3 peptide (peptide)
chain: RLQAQR[Lys(Me3)]FAQSQY
modifications: also: 5-FAM (5-carboxyfluorescein, single isomer) label, site not given here
Turning to B5, binding with EED (amino acids 40-441) [2] was put at a Kd of 8.07 µM.

B6: PALI1-K1241me1 peptide (peptide)
chain: LK[Lys(Me)]FPG
On to B6, for which, in the assay with EED (amino acids 40-441) [1], binding was put at a Kd of 241 µM.
